How the values were obtained:
HL-60 cells = assay: Caspase 3 activity assay in ARTS-transfected HL-60 cells; type: cell-based
Protocol: (§1) K562 and HL-60 cells were grown in RPMI 1640 medium. A549, COS-7 cells were grown in Dulbecco's modified Eagle medium (DMEM) with 4.5 grams/liter (g/L) D-glucose. All cells were grown at 37° C. in a 5% CO2 atmosphere. All media were supplemented with 10% fetal calf serum (FCS), penicillin (100 U/ml), streptomycin (100 micrograms (μg)/ml) and […] millimolar [mM]) (Biological Industries, Israel). pEF1-AU5 and pEF1-AU5-ARTS constructs were used for all ARTS transient transfection experiments. An AU5 tag was attached to the N' terminus of ARTS as described in ([…] et al, Nat Cell Biol 2: 915-921, 2000). The […] construct was generated by replacing three amino acids ([…]) at the GTP binding site, using site-directed mutagenesis (QuickChangeTM, Stratagene) with the primer: [NT] No: 1). COS-7, K562 and HL-60 cells were transiently transfected using electroporation (EasyjectTM plus-Equibio). A549 cells were transiently transfected using lipofectaminTM (Invitrogen) according to the manufacturer's protocol. The following apoptotic agents were used: TGF-beta (10 ng/ml) for 24 hours in medium containing 1% FCS; […] etoposide for 2 or 16 hours (Sigma); staurosporine (STS) ([…]) for 0-3 hours (Sigma); and arabinoside-c (ara-C, cytosar) (Pharmacia) at […] for 4 hours. In the case of transiently transfected cells, agents were added forty hours after transfections. […]

K562 cells = assay: Caspase 3 activity assay in ARTS-transfected K562 cells; type: cell-based
Protocol: as §1

XIAP [1] = target: T1, XIAP (Homo sapiens, UniProt P98170); assay: In vitro binding assay, recombinant ARTS with GST-XIAP; conditions: GST-XIAP and purified recombinant ARTS protein, GST alone as negative control
T1 construct: made in house; host or cells: bacteria (pGEX-XIAP plasmid obtained from Dr. Colin S. Duckett)
Protocol: Recombinant ARTS protein was generated with the TNT-Quick Coupled Transcription/Translation System™ (Promega) and incubated overnight at 4° C. with either recombinant GST-XIAP bound to glutathione beads, or with GST alone bound to glutathione beads, followed by Western blot with anti-ARTS or anti-GST antibody (Gibco).

XIAP [2] = assay: Co-immunoprecipitation of ARTS-XIAP complexes in COS-7 cells; type: cell-based, African Green Monkey; conditions: un-transfected COS-7 cells, apoptosis induced with staurosporine, IP anti-ARTS
Protocol: Protein extracts were prepared with lysis buffer (150 mM NaCl, 50 mM Tris-HCl (pH 8), 1% NP-40, 0.5% deoxycholate acid) with protease inhibitors. Lysates containing equal amounts of total protein were pre-cleared overnight with 1 mg mouse IgG (Sigma) coupled with protein A/G-Sepharose mix (Amersham Biosciences) and the beads centrifuged. Supernatants were immuno-precipitated using 5 μl of anti-ARTS antibody for 4 h, anti-XIAP antibody, rabbit anti-myc antibody, or mouse IgG (negative control). Protein A/G Sepharose beads were added for 1 hour and washed four times with PBS. Antibodies against XIAP (as above), Myc (Santa Cruz), or anti-ARTS (NT) antibodies directed against the common N′ terminus of ARTS and H5 (ProSci Incorporated) were used for Western blot.

COS-7 cells = assay: Apoptosis assays (TUNEL, anti-H2A.X) in COS-7 cells; type: cell-based, African Green Monkey; conditions: COS-7 cells stably transfected with an ARTS construct
Protocol: Apoptotic cells were detected using the anti-H2A.X antibody (Upstate; Paull, et al., 2000) or TUNEL. For TUNEL assays, COS-7 cells were transiently transfected with AU5-ARTS, AU5-ARTSΔC, AU5-ARTSmGTP and AU5-H5. Twenty-four hours after transfection, the cells were treated with staurosporine (STS) ([…]) for 1 or 3 hours, then fixed and permeabilized. Apoptosis levels were determined using the TUNEL. In situ™ cell death detection TMR kit (Roche) according to the manufacturer's protocol. All slides were coded and experiments were performed in a blind manner.
Stably transfected COS-7 pE-ARTS cells were generated using the pEF1-IRES vector (Hobbs S et al, Biochem Biophys Res Commun 252: 368-372, 1998). The construct contains an EF-1 promoter followed by a multi cloning site, an EMC (Encephalomyocarditis virus) internal ribosome entry sites (IRES), and a puromycin resistance gene. AU5-tagged ARTS was inserted into the XhoI site downstream of the EF-1 promoter. The construct was stably transfected into COS-7 cells. The cells were maintained in medium containing 4 μg/ml puromycin.

CIAP = assay: Interaction of ARTS with CIAP; type: binding
[3] = target: T2, Myc epitope-tagged wild-type XIAP (Homo sapiens (Human), UniProt P98170 1-497); assay: immunofluorescence co-localization by confocal microscopy in COS-7 cells transfected with AU5-ARTS and pcDNA3-Myc-XIAP, treated with etoposide
T2 construct: Expressed by transient transfection in COS-7 cells and used as cell lysate; The construct came from Dr. Colin S. Duckett; also called myc-tagged XIAP; mycXIAP
Protocol: FIG. 5. ARTS and XIAP co-localize during apoptosis. Immunofluorescence assay of COS-7 cells with anti-ARTS antibody (left column) and anti-XIAP antibody (second column from left). Nuclei are stained with Dapi (third column from left). Merged images are shown in the right column. Cells were untreated (top panel) or treated with […] etoposide for 2 hours (middle panel) or 16 hours (lower panel). Cells were analyzed using confocal microscopy (magnification 60). Non-apoptotic cells had very little overlap between ARTS and XIAP staining (top panel), with ARTS primarily localized to mitochondria and XIAP staining cytoplasmic, with some peri-nuclear concentration. Two hours after induction of apoptosis, co-localization of ARTS and XIAP occurred primarily near the nucleus (middle panel). After 16 hr both proteins perfectly co-localized in the nucleus.
To confirm the finding that ARTS-XIAP complexes exist in apoptotic cells, COS-7 cells transfected with AU5-ARTS and pcDNA3-Myc-XIAP were visualized by confocal microscopy. Apoptosis was induced with etoposide, and cells were stained after 2 and 16 hours. In non-apoptotic cells, ARTS and XIAP had distinct, essentially non-overlapping distributions, with ARTS primarily localized to mitochondria, whereas XIAP was localized to the cytoplasm, with some peri-nuclear concentration (FIG. 5, top panel). […]

T2 sequence (P98170 whole entry): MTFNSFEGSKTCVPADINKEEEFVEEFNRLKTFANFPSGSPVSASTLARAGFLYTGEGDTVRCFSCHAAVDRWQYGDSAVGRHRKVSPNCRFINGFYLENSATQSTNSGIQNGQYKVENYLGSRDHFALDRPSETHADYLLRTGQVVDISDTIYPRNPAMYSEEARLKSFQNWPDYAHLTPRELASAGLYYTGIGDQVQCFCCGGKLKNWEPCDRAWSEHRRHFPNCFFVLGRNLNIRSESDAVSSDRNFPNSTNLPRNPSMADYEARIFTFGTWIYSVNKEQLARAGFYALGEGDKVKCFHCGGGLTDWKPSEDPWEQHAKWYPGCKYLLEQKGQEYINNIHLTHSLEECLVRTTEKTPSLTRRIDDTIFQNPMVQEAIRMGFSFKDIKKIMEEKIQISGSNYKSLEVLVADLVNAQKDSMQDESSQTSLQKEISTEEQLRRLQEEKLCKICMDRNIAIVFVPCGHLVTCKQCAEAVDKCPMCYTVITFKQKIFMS
T1 sequence (P98170 whole entry): as above

ARTS-XIAP binding, direct or not (XIAP [1]): direct
binding result [3]: binds
B1: AU5-ARTS (other)
chain: MIKRFLEDTTDDGELSKFVKDFSGNASCHPPEAKTWASRPQVPEPRPQAPDLYDDDLEFRPPSRPQSSDNQQYFCAPAPLSPSARPRSPWGKLDPYDSSEDDKEYVGFATLPNQVHRKSVKKGFDFTLMVAGESGLGKSTLVNSLFLTDLYRDRKLLGAEERIMQTVEITKHAVDIEEKGVRLRLTIVDTPGFGDAVNNTECWKPVAEYIDQQFEQYFRDESGLNRKNIQDNRVHCCLYFISPFGHGYGPSLRLLAPPGAVKGTGQEHQGQGCH
notes: Expressed in transfected COS-7 cells and used as lysate or stained in cells; also called pEF1-AU5-ARTS; AU5-tagged ARTS; not shown: AU5 tag attached to the N' terminus of ARTS
caspase-3 activity (HL-60 cells; expression of ARTS in the absence of pro-apoptotic stimuli, HL-60 cells): increased caspase-3 activity
caspase-3 activity (HL-60 cells; over-expression of ARTS, HL-60 cells treated with ara-C): increased caspase-3 activity
caspase-3 activity (K562 cells; expression of ARTS in the absence of pro-apoptotic stimuli, K562 cells): little or no effect
caspase-3 activity (K562 cells; over-expression of ARTS, K562 cells treated with ara-C): increased caspase-3 activity
interaction of endogenous ARTS and XIAP (XIAP [2]): interact with each other
apoptotic marker H2A.X (COS-7 cells): high levels of the apoptotic marker H2A.X
interaction with CIAP (CIAP): interact with ARTS

Source: patent publication US20050227302A1, “Induction of apoptosis via ARTS-IAP complexes” (priority 2004, published 2005)
